According to PMC9365671:

T1: full-length human KIF5A-mScarlet-StrepII (human), Q12840
T1 chain: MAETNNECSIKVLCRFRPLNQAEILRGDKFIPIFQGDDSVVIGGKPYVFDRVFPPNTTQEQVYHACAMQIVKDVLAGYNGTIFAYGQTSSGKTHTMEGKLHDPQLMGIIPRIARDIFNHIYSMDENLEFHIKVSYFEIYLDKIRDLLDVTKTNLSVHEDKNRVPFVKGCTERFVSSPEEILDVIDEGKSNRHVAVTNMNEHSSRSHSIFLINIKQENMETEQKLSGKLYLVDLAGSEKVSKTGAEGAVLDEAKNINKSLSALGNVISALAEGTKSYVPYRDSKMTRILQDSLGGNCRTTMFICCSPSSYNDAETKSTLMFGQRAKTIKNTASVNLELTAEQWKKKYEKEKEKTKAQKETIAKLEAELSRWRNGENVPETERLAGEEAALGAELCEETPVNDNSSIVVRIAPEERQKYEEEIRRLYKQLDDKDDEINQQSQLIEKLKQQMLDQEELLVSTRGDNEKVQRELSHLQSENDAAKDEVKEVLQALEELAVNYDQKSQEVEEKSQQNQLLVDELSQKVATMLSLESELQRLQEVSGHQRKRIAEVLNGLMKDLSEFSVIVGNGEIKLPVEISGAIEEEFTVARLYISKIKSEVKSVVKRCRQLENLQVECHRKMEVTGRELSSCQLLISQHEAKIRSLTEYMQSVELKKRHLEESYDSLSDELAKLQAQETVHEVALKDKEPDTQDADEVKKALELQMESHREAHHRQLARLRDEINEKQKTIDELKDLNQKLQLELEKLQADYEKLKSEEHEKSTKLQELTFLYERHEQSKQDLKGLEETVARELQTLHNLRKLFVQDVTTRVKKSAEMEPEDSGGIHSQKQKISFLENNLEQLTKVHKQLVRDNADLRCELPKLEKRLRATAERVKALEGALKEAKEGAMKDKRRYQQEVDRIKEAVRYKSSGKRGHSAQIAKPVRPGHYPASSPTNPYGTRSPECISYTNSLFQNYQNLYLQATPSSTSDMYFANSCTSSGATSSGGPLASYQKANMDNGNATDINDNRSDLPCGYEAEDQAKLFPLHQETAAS

T2: full-length human KIF5B-mScarlet-StrepII (human), P33176
T2 chain: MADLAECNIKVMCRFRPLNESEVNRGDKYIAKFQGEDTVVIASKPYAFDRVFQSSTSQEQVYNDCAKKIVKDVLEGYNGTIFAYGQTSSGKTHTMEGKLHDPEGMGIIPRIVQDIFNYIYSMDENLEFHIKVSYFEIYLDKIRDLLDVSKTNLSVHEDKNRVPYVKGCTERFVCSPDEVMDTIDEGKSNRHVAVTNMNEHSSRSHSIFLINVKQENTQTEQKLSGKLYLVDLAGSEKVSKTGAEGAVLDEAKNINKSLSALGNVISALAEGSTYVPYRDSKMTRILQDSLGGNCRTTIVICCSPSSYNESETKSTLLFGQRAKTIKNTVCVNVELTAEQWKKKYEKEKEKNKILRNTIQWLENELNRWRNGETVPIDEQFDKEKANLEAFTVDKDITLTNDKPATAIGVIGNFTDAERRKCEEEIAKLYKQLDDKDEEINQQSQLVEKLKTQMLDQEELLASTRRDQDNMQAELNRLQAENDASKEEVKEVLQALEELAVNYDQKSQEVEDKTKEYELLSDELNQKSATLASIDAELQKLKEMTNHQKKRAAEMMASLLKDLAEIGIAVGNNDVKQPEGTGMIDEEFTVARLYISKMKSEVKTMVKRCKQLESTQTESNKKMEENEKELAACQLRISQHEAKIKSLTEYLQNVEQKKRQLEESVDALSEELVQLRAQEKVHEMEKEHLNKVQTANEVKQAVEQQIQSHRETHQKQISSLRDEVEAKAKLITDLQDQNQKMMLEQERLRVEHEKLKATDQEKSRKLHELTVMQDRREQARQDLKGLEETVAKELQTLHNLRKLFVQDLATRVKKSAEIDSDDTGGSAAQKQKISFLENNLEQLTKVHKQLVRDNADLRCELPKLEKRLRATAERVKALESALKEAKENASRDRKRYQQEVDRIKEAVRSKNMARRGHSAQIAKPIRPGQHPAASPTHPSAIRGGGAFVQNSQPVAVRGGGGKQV


Assays:
Conditions in all cases: remark: other sources report otherwise
[1] = biological target: T1, full-length human …; assay: SEC-MALS; purified full-length KIF5 alone; BioSep SEC-s4000 column, GF150 buffer (25 mM HEPES-KOH, 150 mM KCl, 2 mM MgCl2)
[2] = biological target: T1, full-length human …; assay: single-molecule fluorescence brightness (TIRF microscopy); brightness of motile KIF5A-mScarlet molecules on microtubules, ATP
[3] = biological target: T2, full-length human …; assay: SEC-MALS; purified full-length KIF5 alone; BioSep SEC-s4000 column, GF150 buffer (25 mM HEPES-KOH, 150 mM KCl, 2 mM MgCl2)

Row | Binder | stoichiometry N [1] | stoichiometry N [2] | stoichiometry N [3]
1 | full-length human KIF5A-mScarlet-StrepII, Q12840 1-1032 (natural protein) MAETNNECSIKVLCRFRPLNQAEILRGDKFIPIFQGDDSVVIGGKPYVFDRVFPPNTTQEQVYHACAMQIVKDVLAGYNGTIFAYGQTSSGKTHTMEGKLHDPQLMGIIPRIARDIFNHIYSMDENLEFHIKVSYFEIYLDKIRDLLDVTKTNLSVHEDKNRVPFVKGCTERFVSSPEEILDVIDEGKSNRHVAVTNMNEHSSRSHSIFLINIKQENMETEQKLSGKLYLVDLAGSEKVSKTGAEGAVLDEAKNINKSLSALGNVISALAEGTKSYVPYRDSKMTRILQDSLGGNCRTTMFICCSPSSYNDAETKSTLMFGQRAKTIKNTASVNLELTAEQWKKKYEKEKEKTKAQKETIAKLEAELSRWRNGENVPETERLAGEEAALGAELCEETPVNDNSSIVVRIAPEERQKYEEEIRRLYKQLDDKDDEINQQSQLIEKLKQQMLDQEELLVSTRGDNEKVQRELSHLQSENDAAKDEVKEVLQALEELAVNYDQKSQEVEEKSQQNQLLVDELSQKVATMLSLESELQRLQEVSGHQRKRIAEVLNGLMKDLSEFSVIVGNGEIKLPVEISGAIEEEFTVARLYISKIKSEVKSVVKRCRQLENLQVECHRKMEVTGRELSSCQLLISQHEAKIRSLTEYMQSVELKKRHLEESYDSLSDELAKLQAQETVHEVALKDKEPDTQDADEVKKALELQMESHREAHHRQLARLRDEINEKQKTIDELKDLNQKLQLELEKLQADYEKLKSEEHEKSTKLQELTFLYERHEQSKQDLKGLEETVARELQTLHNLRKLFVQDVTTRVKKSAEMEPEDSGGIHSQKQKISFLENNLEQLTKVHKQLVRDNADLRCELPKLEKRLRATAERVKALEGALKEAKEGAMKDKRRYQQEVDRIKEAVRYKSSGKRGHSAQIAKPVRPGHYPASSPTNPYGTRSPECISYTNSLFQNYQNLYLQATPSSTSDMYFANSCTSSGATSSGGPLASYQKANMDNGNATDINDNRSDLPCGYEAEDQAKLFPLHQETAAS | 4 | 4 | 
2 | full-length human KIF5B-mScarlet-StrepII, P33176 1-963 (natural protein) MADLAECNIKVMCRFRPLNESEVNRGDKYIAKFQGEDTVVIASKPYAFDRVFQSSTSQEQVYNDCAKKIVKDVLEGYNGTIFAYGQTSSGKTHTMEGKLHDPEGMGIIPRIVQDIFNYIYSMDENLEFHIKVSYFEIYLDKIRDLLDVSKTNLSVHEDKNRVPYVKGCTERFVCSPDEVMDTIDEGKSNRHVAVTNMNEHSSRSHSIFLINVKQENTQTEQKLSGKLYLVDLAGSEKVSKTGAEGAVLDEAKNINKSLSALGNVISALAEGSTYVPYRDSKMTRILQDSLGGNCRTTIVICCSPSSYNESETKSTLLFGQRAKTIKNTVCVNVELTAEQWKKKYEKEKEKNKILRNTIQWLENELNRWRNGETVPIDEQFDKEKANLEAFTVDKDITLTNDKPATAIGVIGNFTDAERRKCEEEIAKLYKQLDDKDEEINQQSQLVEKLKTQMLDQEELLASTRRDQDNMQAELNRLQAENDASKEEVKEVLQALEELAVNYDQKSQEVEDKTKEYELLSDELNQKSATLASIDAELQKLKEMTNHQKKRAAEMMASLLKDLAEIGIAVGNNDVKQPEGTGMIDEEFTVARLYISKMKSEVKTMVKRCKQLESTQTESNKKMEENEKELAACQLRISQHEAKIKSLTEYLQNVEQKKRQLEESVDALSEELVQLRAQEKVHEMEKEHLNKVQTANEVKQAVEQQIQSHRETHQKQISSLRDEVEAKAKLITDLQDQNQKMMLEQERLRVEHEKLKATDQEKSRKLHELTVMQDRREQARQDLKGLEETVAKELQTLHNLRKLFVQDLATRVKKSAEIDSDDTGGSAAQKQKISFLENNLEQLTKVHKQLVRDNADLRCELPKLEKRLRATAERVKALESALKEAKENASRDRKRYQQEVDRIKEAVRSKNMARRGHSAQIAKPIRPGQHPAASPTHPSAIRGGGAFVQNSQPVAVRGGGGKQV |  |  | 2
